B1: Dipeptidyl peptidase 4 (Homo sapiens), P27487 (parent)
chain: MKTPWKVLLGLLGAAALVTIITVPVVLLNKGTDDATADSRKTYTLTDYLKNTYRLKLYSLRWISDHEYLYKQENNILVFNAEYGNSSVFLENSTFDEFGHSINDYSISPDGQFILLEYNYVKQWRHSYTASYDIYDLNKRQLITEERIPNNTQWVTWSPVGHKLAYVWNNDIYVKIEPNLPSYRITWTGKEDIIYNGITDWVYEEEVFSAYSALWWSPNGTFLAYAQFNDTEVPLIEYSFYSDESLQYPKTVRVPYPKAGAVNPTVKFFVVNTDSLSSVTNATSIQITAPASMLIGDHYLCDVTWATQERISLQWLRRIQNYSVMDICDYDESSGRWNCLVARQHIEMSTTGWVGRFRPSEPHFTLDGNSFYKIISNEEGYRHICYFQIDKKDCTFITKGTWEVIGIEALTSDYLYYISNEYKGMPGGRNLYKIQLSDYTKVTCLSCELNPERCQYYSVSFSKEAKYYQLRCSGPGLPLYTLHSSVNDKGLRVLEDNSALDKMLQNVQMPSKKLDFIILNETKFWYQMILPPHFDKSKKYPLLLDVYAGPCSQKADTVFRLNWATYLASTENIIVASFDGRGSGYQGDKIMHAINRRLGTFEVEDQIEAARQFSKMGFVDNKRIAIWGWSYGGYVTSMVLGSGSGVFKCGIAVAPVSRWEYYDSVYTERYMGLPTPEDNLDHYRNSTVMSRAENFKQVEYLLIHGTADDNVHFQQSAQISKALVDVGVDFQAMWYTDEDHGIASSTAHQHIYTHMSHFIKQCFSLP
partner: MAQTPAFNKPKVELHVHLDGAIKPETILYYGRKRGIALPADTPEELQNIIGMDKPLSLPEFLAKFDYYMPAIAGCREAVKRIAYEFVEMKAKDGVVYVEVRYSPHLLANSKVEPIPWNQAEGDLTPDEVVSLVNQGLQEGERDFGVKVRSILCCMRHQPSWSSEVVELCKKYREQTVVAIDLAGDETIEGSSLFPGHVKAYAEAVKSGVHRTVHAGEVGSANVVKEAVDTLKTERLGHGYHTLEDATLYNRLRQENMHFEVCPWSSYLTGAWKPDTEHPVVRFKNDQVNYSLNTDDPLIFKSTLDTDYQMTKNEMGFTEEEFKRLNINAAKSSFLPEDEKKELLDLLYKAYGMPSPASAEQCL

Variants of: B1
Details: with ada_bovin ADA

| effect of a mutation on the interaction | Variant |
| --- | --- |
| decreasing interaction | Y238A |

Variants of: B1
Details: with ada_bovin ADA
Remark: another data set of the same source

| effect of a mutation on the interaction | Variant |
| --- | --- |
| decreasing interaction | Y248A |

Variants of: B1
Details: with ada_bovin ADA
Remark: another data set of the same source

| effect of a mutation on the interaction | Variant |
| --- | --- |
| decreasing interaction | Y256A |

Reference: IntAct's records for PubMed 22001206
